For 167 variants, abundance fitness results are on record in the Human Domainome abundance scans (Beltran et al. 2025).

To fix the notation:
B1: WW domain-containing transcription regulator protein 1, residues 116 to 162; numbered along this chain, Q9GZV5 (parent)
chain: QSYDVTDELPLPPGWEMTFTATGQRYFLNHIEKITTWQDPRKAMNQP

± gives the uncertainty stated by the source.

The variants in the data set derive from B1. The data set is described as follows: abundance fitness (aPCA) (normalised: wild type 0, dead -1); higher = more abundant; growth selection in yeast, the domain comes from the species named. As to conditions: Homo sapiens.
On to E8I, for which the abundance fitness is -0.274 ± 0.087.
For the variant E8V, the abundance fitness was -0.118 ± 0.035.
On to E8G, for which the abundance fitness was -0.07 ± 0.03.
Take E8L: the abundance fitness was -0.253 ± 0.041.
E8C: the abundance fitness was -0.163 ± 0.057.
As for E8F, the abundance fitness is -0.302 ± 0.066.
In the case of E8D, the abundance fitness was -0.084 ± 0.056.
As for E8N, the abundance fitness is -0.128 ± 0.056.
Consider E8T, for which the abundance fitness was 0.01 ± 0.047.
In the case of E8K, the abundance fitness is -0.005 ± 0.041.
Take E8S: the abundance fitness is -0.071 ± 0.039.
For the variant E8R, the abundance fitness is -0.109 ± 0.04.
With E8A, the abundance fitness is -0.027 ± 0.026.
For E8Y the value was -0.248 ± 0.067; for E8M, 0.065 ± 0.055; for E8P, -0.09 ± 0.039.
Regarding E8W, the abundance fitness is -0.78 ± 0.062.
In the case of L9W, the abundance fitness is -0.087 ± 0.032.
Consider L9I, for which the abundance fitness stood at 0.022 ± 0.05.
To L9F belongs -0.082 ± 0.041; to L9Y, -0.035 ± 0.037.
With L9E, the abundance fitness was -0.028 ± 0.034.
Consider L9H, for which the abundance fitness is -0.043 ± 0.049.
Take L9V: the abundance fitness was 0.05 ± 0.034.
For L9M the value was -0.009 ± 0.029; for L9A, 0.044 ± 0.039; for L9C, -0.103 ± 0.04.
L9Q: the abundance fitness came to 0.022 ± 0.046.
For the variant L9P, the abundance fitness is -0.001 ± 0.047.
On to L9D, for which the abundance fitness is 0.028 ± 0.025.
To L9N belongs -0.009 ± 0.048; to L9R, 0.027 ± 0.029.
Regarding L9K, the abundance fitness was -0.064 ± 0.048.
Turning to L9S, the abundance fitness was -0.003 ± 0.038.
For L9T, the abundance fitness is 0.117 ± 0.045.
L9G: the abundance fitness is -0.027 ± 0.03.
On to P12I, for which the abundance fitness was -0.873 ± 0.2.
As to P12D, the abundance fitness was -0.604 ± 0.058.
For the variant P12A, the abundance fitness is -0.467 ± 0.041.
In the case of P12M, the abundance fitness was -0.862 ± 0.085.
As for P12E, the abundance fitness is -0.601 ± 0.062.
P12N: the abundance fitness is -0.556 ± 0.083.
Take P12C: the abundance fitness was -0.716 ± 0.083.
Turning to P12Q, the abundance fitness is -0.494 ± 0.12.
In the case of P12L, the abundance fitness is -0.738 ± 0.048.
As to P12H, the abundance fitness is -0.907 ± 0.24.
To P12F belongs -0.997 ± 0.15; to P12G, -0.49 ± 0.041; to P12W, -0.826 ± 0.073.
To P12Y belongs -0.61 ± 0.062; to P12R, -0.692 ± 0.045; to P12K, -0.782 ± 0.089.
On to P12V, for which the abundance fitness is -0.921 ± 0.091.
For P12T, the abundance fitness was -0.758 ± 0.076.
L11R: the abundance fitness is -0.847 ± 0.03.
To L11Y belongs -0.493 ± 0.049.
Turning to L11P, the abundance fitness was -0.556 ± 0.044.
L11W: the abundance fitness is -0.686 ± 0.033.
As for L11D, the abundance fitness was -0.732 ± 0.048.
In the case of L11I, the abundance fitness was -0.337 ± 0.04.
For L11G the value was -0.731 ± 0.029.
For L11C, the abundance fitness was -0.432 ± 0.049.
Regarding L11M, the abundance fitness is -0.07 ± 0.038.
Consider L11V, for which the abundance fitness is -0.381 ± 0.033.
Regarding L11T, the abundance fitness was -0.548 ± 0.042.
Regarding L11A, the abundance fitness was -0.715 ± 0.038.
L11S: the abundance fitness is -0.609 ± 0.035.
In the case of L11E, the abundance fitness was -0.767 ± 0.068.
As to L11F, the abundance fitness was -0.08 ± 0.038.
To L11H belongs -0.676 ± 0.081.
With L11N, the abundance fitness was -0.789 ± 0.13.
For L11K the value was -0.746 ± 0.086.
As to L11Q, the abundance fitness was -0.684 ± 0.075.
As for P13A, the abundance fitness was -0.043 ± 0.032.
As for P13K, the abundance fitness was -0.084 ± 0.04.
Regarding P13E, the abundance fitness was -0.043 ± 0.039.
Consider P13C, for which the abundance fitness was -0.222 ± 0.044.
As to P13F, the abundance fitness was -0.093 ± 0.047.
In the case of P13M, the abundance fitness was -0.168 ± 0.04.
As to P13D, the abundance fitness is -0.012 ± 0.043.
For the variant P13I, the abundance fitness is -0.18 ± 0.05.
To P13H belongs -0.014 ± 0.03; to P13G, -0.136 ± 0.025.
As to P13L, the abundance fitness is -0.124 ± 0.034.
For P10N the value was -0.129 ± 0.032; for P10G, -0.12 ± 0.028; for P10A, -0.088 ± 0.027.
To P10V belongs -0.188 ± 0.028; to P10R, -0.224 ± 0.028.
To P10H belongs -0.181 ± 0.053; to P10Y, -0.351 ± 0.042.
Take P10E: the abundance fitness is -0.058 ± 0.027.
As to P10F, the abundance fitness is -0.342 ± 0.038.
Regarding P10Q, the abundance fitness was -0.123 ± 0.048.
As for P10D, the abundance fitness was -0.083 ± 0.043.
P10W: the abundance fitness is -0.393 ± 0.037.
Turning to P10L, the abundance fitness was -0.25 ± 0.024.
Consider P10C, for which the abundance fitness was -0.374 ± 0.044.
In the case of P10K, the abundance fitness is -0.115 ± 0.035.
For P10I the value was -0.174 ± 0.03; for P10M, -0.212 ± 0.036.
For P10T, the abundance fitness was -0.045 ± 0.035.
On to P10S, for which the abundance fitness was -0.109 ± 0.025.
To D7M belongs -0.185 ± 0.049; to D7F, -0.312 ± 0.033; to D7C, -0.202 ± 0.05.
For D7R the value was -0.166 ± 0.041; for D7W, -0.45 ± 0.047; for D7Y, -0.268 ± 0.049.
For D7S the value was -0.104 ± 0.038; for D7H, 0.053 ± 0.055; for D7K, -0.041 ± 0.039.
For the variant D7E, the abundance fitness was -0.314 ± 0.05.
For D7V the value was -0.207 ± 0.035.
Consider D7A, for which the abundance fitness was -0.049 ± 0.027.
On to D7T, for which the abundance fitness is -0.065 ± 0.056.
Consider D7N, for which the abundance fitness was -0.041 ± 0.032.
Regarding D7Q, the abundance fitness was -0.178 ± 0.053.
Take D7G: the abundance fitness was -0.154 ± 0.035.
For D7I the value was -0.195 ± 0.055.
Turning to D4L, the abundance fitness is -0.147 ± 0.031.
For D4W the value was -0.381 ± 0.059; for D4I, -0.189 ± 0.063; for D4F, -0.152 ± 0.062.
D4K: the abundance fitness was -0.014 ± 0.043.
As for D4Q, the abundance fitness was -0.404 ± 0.053.
Consider D4G, for which the abundance fitness was -0.198 ± 0.036.
As to D4P, the abundance fitness was -0.071 ± 0.051.
On to D4N, for which the abundance fitness stood at 0.053 ± 0.033.
As to D4T, the abundance fitness was -0.162 ± 0.048.
As to D4E, the abundance fitness is -0.072 ± 0.043.
For D4R the value was -0.151 ± 0.025.
For the variant D4S, the abundance fitness is -0.089 ± 0.039.
For D4Y the value was 0.048 ± 0.057; for D4H, -0.207 ± 0.061.
As for V5K, the abundance fitness is -0.023 ± 0.038.
On to V5E, for which the abundance fitness was -0.088 ± 0.042.
Take V5H: the abundance fitness is -0.231 ± 0.059.
As to V5Q, the abundance fitness is -0.145 ± 0.046.
Turning to V5M, the abundance fitness is -0.026 ± 0.035.
On to V5S, for which the abundance fitness is -0.053 ± 0.032.
To V5C belongs -0.126 ± 0.032.
For the variant V5N, the abundance fitness is -0.033 ± 0.049.
On to V5R, for which the abundance fitness is -0.111 ± 0.035.
Turning to V5T, the abundance fitness came to 0.011 ± 0.044.
Consider V5L, for which the abundance fitness is -0.103 ± 0.025.
Consider V5P, for which the abundance fitness was -0.224 ± 0.048.
As to V5Y, the abundance fitness is -0.354 ± 0.081.
For the variant V5G, the abundance fitness was -0.194 ± 0.03.
With V5I, the abundance fitness turned out to be 0.029 ± 0.036.
Turning to V5A, the abundance fitness was -0.088 ± 0.036.
Take T6S: the abundance fitness was -0.03 ± 0.036.
For T6E, the abundance fitness was -0.216 ± 0.041.
As for T6P, the abundance fitness was -0.013 ± 0.045.
Turning to T6C, the abundance fitness is -0.071 ± 0.056.
Turning to T6L, the abundance fitness was -0.104 ± 0.029.
T6A: the abundance fitness is -0.196 ± 0.037.
With T6Q, the abundance fitness is -0.142 ± 0.044.
Turning to T6H, the abundance fitness is -0.352 ± 0.067.
As for T6Y, the abundance fitness is -0.189 ± 0.054.
As to T6I, the abundance fitness was -0.032 ± 0.046.
In the case of T6M, the abundance fitness is -0.008 ± 0.035.
With T6R, the abundance fitness was -0.086 ± 0.031.
For the variant T6D, the abundance fitness is -0.104 ± 0.044.
As for T6V, the abundance fitness is -0.06 ± 0.026.
With T6N, the abundance fitness is -0.198 ± 0.06.
Consider T6F, for which the abundance fitness is -0.074 ± 0.052.
